# Data from PMC7268548, “A missense variant in specificity protein 6 (SP6) is associated with amelogenesis imperfecta”.
# T1: SP6 wild type (Homo sapiens, UniProt Q3SY56 1-376)
# T1 sequence: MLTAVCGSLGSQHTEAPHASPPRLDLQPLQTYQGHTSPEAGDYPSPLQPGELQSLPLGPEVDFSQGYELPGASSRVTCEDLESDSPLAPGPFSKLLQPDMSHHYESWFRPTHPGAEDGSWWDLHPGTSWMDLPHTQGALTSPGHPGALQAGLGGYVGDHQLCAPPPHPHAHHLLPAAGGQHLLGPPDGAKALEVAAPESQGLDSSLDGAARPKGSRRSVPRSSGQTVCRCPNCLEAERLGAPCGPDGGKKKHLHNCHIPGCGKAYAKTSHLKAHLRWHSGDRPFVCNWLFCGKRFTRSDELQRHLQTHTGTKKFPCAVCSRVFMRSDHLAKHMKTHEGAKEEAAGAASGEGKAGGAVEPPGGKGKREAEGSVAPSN
# T2: SP6 p.(Ala273Lys) (Homo sapiens, UniProt Q3SY56 1-376, A273K)
# T2 sequence: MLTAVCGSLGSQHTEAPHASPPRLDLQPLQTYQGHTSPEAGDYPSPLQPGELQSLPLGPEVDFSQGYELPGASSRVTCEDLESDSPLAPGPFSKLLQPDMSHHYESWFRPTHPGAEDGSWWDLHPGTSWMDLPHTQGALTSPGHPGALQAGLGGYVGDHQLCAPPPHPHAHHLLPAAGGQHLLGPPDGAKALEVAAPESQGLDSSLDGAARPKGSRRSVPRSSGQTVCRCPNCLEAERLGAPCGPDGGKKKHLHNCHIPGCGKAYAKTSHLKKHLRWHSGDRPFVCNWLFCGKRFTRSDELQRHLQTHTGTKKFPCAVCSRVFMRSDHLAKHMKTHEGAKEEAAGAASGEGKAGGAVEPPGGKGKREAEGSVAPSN
# Assays:
# SP6 wild type = molecular target: T1, SP6 wild type; test: SPR; up to 400 nM; data not shown; Biacore 3000 SPR, 10 mM HEPES pH 7.5, 200 mM NaCl, 0.01% surfactant P-20, 25 C, 40 uL/min, protein 6.25-400 nM, DNA on SA chip; conditions: protein: recombinant; tags: N-terminal His-GST; label: 5'-biotin on forward strand; blunt
# SP6 p.(Ala273Lys) = molecular target: T2, SP6 p.(Ala273Lys); test: as above; conditions: protein: recombinant; tags: N-terminal His-GST; label: 5'-biotin on forward strand; blunt
binder,measurement,setting,value
NKX2-1 promoter probe (SP3 site control) (dsDNA) DNA 1: GGGATCCGGGACAGCCTCCGGGAGGCAGTCGATCCCCTAC DNA 2: GTAGGGGATCGACTGCCTCCCGGAGGCTGTCCCGGATCCC,binding result,SP6 wild type,no binding
same,binding result,SP6 p.(Ala273Lys),no binding
